Non-standard residues stand in square brackets, D forms with d. No end group written: not given here. *: point of attachment. Trp(5-CN) = N#Cc1ccc2[nH]cc(C[C@H](N)C(=O)O)c2c1; Ac6c = NC1(C(=O)O)CCCCC1; Hexanoyl = CCCCCC(=O)*; Propionyl = CCC(=O)*; Ahx = NCCCCCC(=O)O
B1: IV-12-B (peptide)
chain: Ac-R[dY]Y[dR]WR-NH2
SMILES: CC(=O)N[C@@H](CCCNC(=N)N)C(=O)N[C@H](Cc1ccc(O)cc1)C(=O)N[C@@H](Cc1ccc(O)cc1)C(=O)N[C@H](CCCNC(=N)N)C(=O)N[C@@H](Cc1c[nH]c2ccccc12)C(=O)N[C@@H](CCCNC(=N)N)C(N)=O
B2: VII-57-C (peptide)
chain: Ac-RYYRW[Ahx]-NH2
SMILES: CC(=O)N[C@@H](CCCNC(=N)N)C(=O)N[C@@H](Cc1ccc(O)cc1)C(=O)N[C@@H](Cc1ccc(O)cc1)C(=O)N[C@@H](CCCNC(=N)N)C(=O)N[C@@H](Cc1c[nH]c2ccccc12)C(=O)NCCCCCC(N)=O
B3: VII-4-B (peptide)
chain: [Ac6c]RYYRWR-NH2
modifications: N-terminus assumed
SMILES: N=C(N)NCCC[C@H](NC(=O)[C@H](Cc1c[nH]c2ccccc12)NC(=O)[C@H](CCCNC(=N)N)NC(=O)[C@H](Cc1ccc(O)cc1)NC(=O)[C@H](Cc1ccc(O)cc1)NC(=O)[C@H](CCCNC(=N)N)NC(=O)C1(N)CCCCC1)C(N)=O
B4: VII-51-A (peptide)
chain: Ac-RYYR[Trp(5-CN)]R-NH2
SMILES: CC(=O)N[C@@H](CCCNC(=N)N)C(=O)N[C@@H](Cc1ccc(O)cc1)C(=O)N[C@@H](Cc1ccc(O)cc1)C(=O)N[C@@H](CCCNC(=N)N)C(=O)N[C@@H](Cc1c[nH]c2ccc(C#N)cc12)C(=O)N[C@@H](CCCNC(=N)N)C(N)=O
B5: VII-55-A (peptide)
chain: Ac-RYY[Ahx]WR-NH2
SMILES: CC(=O)N[C@@H](CCCNC(=N)N)C(=O)N[C@@H](Cc1ccc(O)cc1)C(=O)N[C@@H](Cc1ccc(O)cc1)C(=O)NCCCCCC(=O)N[C@@H](Cc1c[nH]c2ccccc12)C(=O)N[C@@H](CCCNC(=N)N)C(N)=O
B6: IV-23-B (peptide)
chain: Propionyl-RAYRWR-NH2
SMILES: CCC(=O)N[C@@H](CCCNC(=N)N)C(=O)N[C@@H](C)C(=O)N[C@@H](Cc1ccc(O)cc1)C(=O)N[C@@H](CCCNC(=N)N)C(=O)N[C@@H](Cc1c[nH]c2ccccc12)C(=O)N[C@@H](CCCNC(=N)N)C(N)=O
B7: IV-27-B (peptide)
chain: Propionyl-RYYAWR-NH2
SMILES: CCC(=O)N[C@@H](CCCNC(=N)N)C(=O)N[C@@H](Cc1ccc(O)cc1)C(=O)N[C@@H](Cc1ccc(O)cc1)C(=O)N[C@@H](C)C(=O)N[C@@H](Cc1c[nH]c2ccccc12)C(=O)N[C@@H](CCCNC(=N)N)C(N)=O
B8: IV-35-B (peptide)
chain: Hexanoyl-RAYRWR-NH2
SMILES: CCCCCC(=O)N[C@@H](CCCNC(=N)N)C(=O)N[C@@H](C)C(=O)N[C@@H](Cc1ccc(O)cc1)C(=O)N[C@@H](CCCNC(=N)N)C(=O)N[C@@H](Cc1c[nH]c2ccccc12)C(=O)N[C@@H](CCCNC(=N)N)C(N)=O
B9: IV-41-B (peptide)
chain: Hexanoyl-RYYRAR-NH2
SMILES: CCCCCC(=O)N[C@@H](CCCNC(=N)N)C(=O)N[C@@H](Cc1ccc(O)cc1)C(=O)N[C@@H](Cc1ccc(O)cc1)C(=O)N[C@@H](CCCNC(=N)N)C(=O)N[C@@H](C)C(=O)N[C@@H](CCCNC(=N)N)C(N)=O
B10: IV-21-C (peptide)
chain: Propionyl-AYYRWR-NH2
SMILES: CCC(=O)N[C@@H](C)C(=O)N[C@@H](Cc1ccc(O)cc1)C(=O)N[C@@H](Cc1ccc(O)cc1)C(=O)N[C@@H](CCCNC(=N)N)C(=O)N[C@@H](Cc1c[nH]c2ccccc12)C(=O)N[C@@H](CCCNC(=N)N)C(N)=O
B11: IV-33-B (peptide)
chain: Hexanoyl-AYYRWR-NH2
SMILES: CCCCCC(=O)N[C@@H](C)C(=O)N[C@@H](Cc1ccc(O)cc1)C(=O)N[C@@H](Cc1ccc(O)cc1)C(=O)N[C@@H](CCCNC(=N)N)C(=O)N[C@@H](Cc1c[nH]c2ccccc12)C(=O)N[C@@H](CCCNC(=N)N)C(N)=O
B12: IV-29-B (peptide)
chain: Propionyl-RYYRAR-NH2
SMILES: CCC(=O)N[C@@H](CCCNC(=N)N)C(=O)N[C@@H](Cc1ccc(O)cc1)C(=O)N[C@@H](Cc1ccc(O)cc1)C(=O)N[C@@H](CCCNC(=N)N)C(=O)N[C@@H](C)C(=O)N[C@@H](CCCNC(=N)N)C(N)=O
B13: IV-39-B (peptide)
chain: Hexanoyl-RYYAWR-NH2
SMILES: CCCCCC(=O)N[C@@H](CCCNC(=N)N)C(=O)N[C@@H](Cc1ccc(O)cc1)C(=O)N[C@@H](Cc1ccc(O)cc1)C(=O)N[C@@H](C)C(=O)N[C@@H](Cc1c[nH]c2ccccc12)C(=O)N[C@@H](CCCNC(=N)N)C(N)=O

target: ORL1 (UniProt P41146); experiment: competition, [3H]nociceptin
Sequence (P41146 whole entry): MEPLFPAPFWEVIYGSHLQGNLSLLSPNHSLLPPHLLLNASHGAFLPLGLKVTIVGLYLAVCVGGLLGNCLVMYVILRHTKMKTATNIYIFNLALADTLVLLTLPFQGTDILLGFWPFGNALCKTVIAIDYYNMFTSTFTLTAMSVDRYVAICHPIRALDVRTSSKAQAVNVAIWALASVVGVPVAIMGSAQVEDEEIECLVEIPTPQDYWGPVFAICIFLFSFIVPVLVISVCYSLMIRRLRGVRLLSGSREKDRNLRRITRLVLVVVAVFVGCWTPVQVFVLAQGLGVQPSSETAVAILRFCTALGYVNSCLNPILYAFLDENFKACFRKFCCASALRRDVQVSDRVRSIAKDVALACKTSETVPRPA

| Binder | IC50 |
| --- | --- |
| B1 | 1140 nM |

target: ORL1 (UniProt P41146); experiment: competition

| Binder | Ki |
| --- | --- |
| B2 | 41.9 nM |
| B3 | 9.25 nM |
| B4 | 0.3 nM |
| B5 | 39 nM |

target: ORL1 (UniProt P41146); experiment: competition; remark: another data set of the same source

| Binder | IC50 |
| --- | --- |
| B6 | 182 nM |
| B7 | 400 nM |
| B8 | 113 nM |
| B9 | 710 nM |
| B10 | 1780 nM |
| B11 | 1020 nM |
| B12 | 1890 nM |
| B13 | 1000 nM |

From patent US20060194739 (published 2006)
